Assay results taken from US8710017B2, “Human and mouse targeting peptides identified by phage display” (priority 2000, dated 2014).
Bridge positions count the residues as written; N and C are the ends. Ends that are not written are not given here.

Experiments:
[1] = target: T1, β5 integrin cytoplasmic domain (Homo sapiens, UniProt P18084); assay: Phage binding to immobilized GST-β5cyto; settings: for β5/GST Ratio: colonies from β5-GST wells divided by GST
T1 construct: the screenings involving the β5 cytoplasmic domain fusion protein
T1 sequence (P18084 743-799 limits assumed): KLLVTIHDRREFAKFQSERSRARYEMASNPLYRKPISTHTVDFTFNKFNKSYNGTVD
Experimental: FIG. 10. Binding of β5 cytoplasmic domain-selected phage to immobilized proteins. GST fusion proteins or GST alone were coated on microtiter wells at 10 μg/ml and used to bind phage expressing endostatin binding peptides. […] The data represent the mean colony counts from triplicate wells, with standard error less than 10% of the mean.
β3 and β5 cytoplasmic domain-binding peptides were isolated by screening multiple phage libraries with recombinant GST fusion proteins that contained either GST-β3cyto or GST-β5cyto coated onto microtiter wells. Immobilized GST was used as a negative control for enrichment during the panning of each cytoplasmic domain. Phage were sequenced from randomly selected clones after three rounds of panning as disclosed elsewhere (Koivunen et al., 1995; Pasqualini et al., 1995). Distinct sequences were isolated that interacted specifically with the β3 or with the β5 cytoplasmic domains (Table 9). Randomly selected clones from panning rounds II and III were sequenced. Amino acid sequences of the phagemid encoded peptides were deduced from nucleotide sequences. The ratios were calculated by dividing the number of colonies recovered from β3-GST-coated wells and those recovered from GST or BSA.
A similar strategy was used to determine the specificity of the phage isolated in the screenings involving the β5 cytoplasmic domain fusion protein.
To determine whether the binding of the selected motifs was specific for each cytoplasmic domain, binding assays were performed comparing the interaction of individual phage motifs with β1, β3, or β5 cytoplasmic domain fusion proteins. […] Both the β3- and β5-selected phage selectively interacted with the proteins on which they were originally selected, with average binding selectivities observed of β3/β1=3.9, β3/β5=3.7, β5/β1=4.8, and β5/β3=6.9 (not shown). The average selectivity for integrin cytoplasmic domains versus BSA was about one to two orders of magnitude (not shown). None of the phage tested seemed to bind strongly to the β1 cytoplasmic domain (not shown).

APA (SK-RC-49/APA cells) [2] = target: T2, APA (SK-RC-49/APA cells) (Homo sapiens, UniProt Q07075); assay: Cell panning of CX3CX3CX3C phage library on SK-RC-49/APA cells (insert frequency); type: cell-based
T2 construct: The renal carcinoma cell line SK-RC-49 was transfected with an expression vector encoding full-length APA cDNA; expressed in transfected cells; host or cells: SK-RC-49 renal carcinoma cells, stably transfected (G418)
T2 sequence (Q07075 whole entry): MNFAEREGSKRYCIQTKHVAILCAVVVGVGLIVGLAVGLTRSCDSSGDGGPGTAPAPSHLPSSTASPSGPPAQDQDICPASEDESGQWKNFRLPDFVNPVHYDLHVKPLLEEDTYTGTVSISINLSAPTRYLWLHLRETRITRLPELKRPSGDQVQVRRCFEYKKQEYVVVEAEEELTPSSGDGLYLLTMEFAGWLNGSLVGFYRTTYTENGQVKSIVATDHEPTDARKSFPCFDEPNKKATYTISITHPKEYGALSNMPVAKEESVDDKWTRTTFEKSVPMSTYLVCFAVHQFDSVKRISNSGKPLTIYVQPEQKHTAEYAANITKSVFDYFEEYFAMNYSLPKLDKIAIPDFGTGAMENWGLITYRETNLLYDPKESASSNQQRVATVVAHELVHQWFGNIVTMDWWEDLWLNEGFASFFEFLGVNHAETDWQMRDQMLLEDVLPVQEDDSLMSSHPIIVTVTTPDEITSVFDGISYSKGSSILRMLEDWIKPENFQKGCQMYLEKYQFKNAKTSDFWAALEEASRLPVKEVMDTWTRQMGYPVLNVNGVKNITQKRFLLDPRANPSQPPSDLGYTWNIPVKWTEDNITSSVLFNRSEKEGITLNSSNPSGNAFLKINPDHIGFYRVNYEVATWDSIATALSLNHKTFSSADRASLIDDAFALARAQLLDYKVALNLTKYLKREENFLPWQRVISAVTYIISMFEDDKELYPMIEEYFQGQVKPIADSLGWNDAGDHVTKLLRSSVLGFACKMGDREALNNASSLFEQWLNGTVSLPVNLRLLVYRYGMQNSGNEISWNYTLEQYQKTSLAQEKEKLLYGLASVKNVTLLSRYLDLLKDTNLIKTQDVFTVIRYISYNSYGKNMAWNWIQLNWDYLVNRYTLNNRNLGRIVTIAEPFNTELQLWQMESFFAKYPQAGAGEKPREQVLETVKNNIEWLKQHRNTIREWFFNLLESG
Experimental: A CX3CX3CX3C(C, cysteine; X, any amino acid) library was prepared (Rajotte et al., 1998). […] Cells were detached by incubation with 2.5 mM EDTA in PBS, washed once in binding medium (DMEM high glucose supplemented with 20 mM HEPES and 2% FCS), and resuspended in the same medium at a concentration of 2×10^6 cells/ml. 10^10 TU of phage were added to 500 μl of the cell suspension, and the mixture was incubated overnight (first round) or for 2 h (successive rounds) at 4° C. with gentle rotation. Cells were washed five times in binding medium at room temperature and resuspended in 100 μl of the same medium. Phage were rescued by adding 1 ml of exponentially growing K91Kan Escherichia coli bacteria and incubating the mixture for 1 h at room temperature. Bacteria were diluted in 10 ml of LB medium supplemented with 0.2 μg/ml tetracycline and incubated for another 20 min at room temperature. Serial dilutions were plated on LB plates containing 40 μg/ml tetracycline, and plates were incubated at 37° C. overnight before colonies were counted.
The CX3CX3CX3C phage library (10^10 transducing units [TU]) was preadsorbed on parental SK-RC-49 cells to decrease nonspecific binding. […] SK-RC-49/APA-bound phage were amplified and used for two consecutive rounds of selection.

APA (SK-RC-49/APA cells) [3] = target: T2, APA (SK-RC-49/APA cells); assay: Phage binding specificity assay on SK-RC-49/APA cells; type: cell-based
Experimental: The cell binding assay was performed with an input of 10^9 TU as described for the cell panning. The specificity was confirmed by adding […] (SEQ ID NO:123) peptide to the binding medium in increasing concentrations. For phage binding on immunocaptured APA, wells were blocked for 1 h at room temperature with PBS/3% BSA and incubated with 10^9 TU for 1 h at room temperature in 50 μl PBS/3% BSA. After eight washes in PBS/1% BSA/0.01% Tween-20 and two washes in PBS, phage were rescued by adding 200 μl of exponentially growing K91Kan E. coli. Each experiment was repeated at least three times.

[4] = test system: MDA-MB-435-derived tumor xenografts; assay: In vivo tumor homing of APA-binding phage; set-up: species or system mouse; settings: 10^9 TU iv, 5 min circulation, FIG. 22
Experimental: MDA-MB-435-derived tumor xenografts were established in female nude mice 2 months old (Jackson Labs, Bar Harbor, Me.). Mice were anesthetized with Avertin and injected intravenously through the tail vein with 10^9 TU of the phage in a 200 μl volume of DMEM. The phage were allowed to circulate for 5 min, and the animals were perfused through the heart with 5 ml of DMEM. The tumor and brain were dissected from each mouse, weighed, and equal amounts of tissue were homogenized. The tissue homogenates were washed three times with ice-cold DMEM containing a proteinase inhibitor cocktail and 0.1% BSA. Bound phage were rescued and counted as described for cell panning. Fd-tet phage was injected at the same input as a control. The experiment was repeated twice. In parallel, part of the same tissue samples were fixed in Bouin solution, and imbedded in paraffin for preparation of tissue sections. An antibody to M-13 phage (Amersham-Pharmacia) was used for the staining.

HUVECs [5] = assay: HUVEC chemotaxis assay (Boyden chamber, VEGF-A); type: cell-based, human; settings: 1 mM, VEGF-A 10 ng/ml, 5 h, FIG. 24
Experimental: FIG. 24. […] (SEQ ID NO:123) inhibits HUVEC migration. HUVECs were stimulated with VEGF-A (10 ng/ml). The assay was performed in a Boyden microchemotaxis chamber, and cells were allowed to migrate through an 8-μm pore filter for 5 h at 37° C. […] (SEQ ID NO:124) (control) and […] (SEQ ID NO:123) peptides were tested at 1 mM concentration. Migrated cells were stained and five high-power fields (magnitude 100×) for each microwell were counted. Error bars are the standard error of the means of triplicate microwells.
A cell migration assay was performed in a 48-well microchemotaxis chamber (NeuroProbe, Gaithersburg, Md.) according to Bussolini et al. (1995). Polyvinylpyrrolidone-free polycarbonate filters (Nucleopore, Cambridge, Mass.) with 8-μm pores were coated with 1% gelatin for 10 min at room temperature and equilibrated in M199 medium supplemented with 2% FCS. […] (SEQ ID NO:123) or control […] (SEQ ID NO:124) peptide (1 mM) was placed in the lower compartment of a Boyden chamber in M199 medium supplemented with 2% FCS and 10 ng/ml VEGF-A (R&D System). Subconfluent cultures that had been starved overnight were harvested in PBS containing 2.5 mM EDTA, washed once in PBS, and resuspended in M199 medium containing 2% FCS at a final concentration of 2×10^6 cells/ml. After the filter was placed between the lower and upper chambers, 50 μl of the cell suspension was seeded in the upper compartment, and cells were allowed to migrate for 5 h at 37° C. in a humidified atmosphere with 5% CO2. The filter was then removed, and cells on the upper side were scraped with a rubber policeman. Migrated cells were fixed in methanol and stained with Giemsa solution (Diff-Quick, Baxter Diagnostics, Rome, Italy). Five random high-power fields (magnitude 100×) were counted in each well. Each assay was run in triplicate.

HUVECs [6] = assay: HUVEC cell growth assay (crystal violet, VEGF-A); type: cell-based, human; settings: 1 mM, VEGF-A 10 ng/ml, FIG. 25
Experimental: FIG. 25. […] (SEQ ID NO:123) inhibits HUVEC proliferation. Cells were stimulated with VEGF-A (10 ng/ml), and growth was evaluated at the indicated times by a colorimetric assay based on crystal violet staining. Error bars are the standard error of the means of triplicate wells. Each experiment was repeated at least twice with similar results.
HUVECs were seeded in 48-well plates (10^4 cells/well) and allowed to attach for 24 h in complete M199 medium. The cells were then starved in M199 medium containing 2% FCS for 24 h. […] (SEQ ID NO:123) or control […] (SEQ ID NO:124) peptide (1 mM) was added to the wells in medium containing 2% FCS and 10 ng/ml VEGF-A (R&D System, Abingdom, UK). After incubation for the indicated times, cells were fixed in 2.5% glutaraldehyde, stained with 0.1% crystal violet in 20% methanol, and solubilized in 10% acetic acid. All treatments were done in triplicate. Cell growth was evaluated by measuring the O.D. at 590 nm in a microplate reader (Biorad, Hercules, Calif.). A calibration curve was established and a linear correlation between O.D. and cell counts was observed between 10^3 and 10^5 cells.

HUVECs [7] = assay: Three-dimensional Matrigel culture of HUVECs (capillary-like network); type: cell-based, human; settings: 1 mM, 24 h, not shown
Experimental: Matrigel (Collaborative Research, Bedford, Mass.) was added at 100 μl per well to 48-well tissue culture plates and allowed to solidify for 10 min at 37° C. HUVECs were starved for 24 h in M199 medium supplemented with 2% FCS before being harvested in PBS containing 2.5 mM EDTA. 10^4 cells were gently added to each of the triplicate wells and allowed to adhere to the gel coating for 30 min at 37° C. Then, medium was replaced with indicated concentrations of […] (SEQ ID NO:123) or […] (SEQ ID NO:124) peptides in complete medium. The plates were photographed after 24 h with an inverted microscope (Canon). The assay was repeated three times.

[8] = test system: chicken chorioallantoic membrane (CAM); assay: CAM assay for angiogenesis; type: in vivo; settings: control peptide, 1 mM, not shown
Experimental: In vivo angiogenesis was evaluated by a CAM assay (Ribatti et al., 1994). Fertilized eggs from White Leghorn chickens were maintained in constant humidity at 37° C. On the third day of incubation, a square window was opened in the eggshell and 2-3 ml of albumen was removed to detach the developing CAM from the shell. The window was sealed with a glass plate of the same size and the eggs were returned to the incubator. At day 8, 1 mm^3 sterilized gelatin sponges (Gelfoam, Upjohn Co, Kalamazoo, Milan) were adsorbed with VEGF-A (20 ng, R&D System) and either […] (SEQ ID NO:123) or control […] (SEQ ID NO:124) peptide (1 mM) in 3 μl PBS and implanted on the top of the growing CAMs under sterile conditions. CAMs were examined daily until day 12 and photographed in ovo with a Leica stereomicroscope. Capillaries emerging from the sponge were counted. The assay was repeated twice.

endothelial cells = assay: Endothelial cell migration (chemotaxis) assay with penetratin peptide chimeras; type: cell-based, human; settings: VEGF-A 20 ng/ml, 5 h, FIG. 16
Experimental: FIG. 16. Effect of penetratin peptide chimeras on endothelial cell migration. Cell migration assay were performed in a 48-well microchemotaxis chamber. Five random high-power fields (magnitude 40×) were counted in each well.
Cell migration assays were performed as follows: 48-well microchemotaxis chambers were used. Polyvinylpyrrolidone-free polycarbonate filters (Nucleopore, Cambridge, Mass.) with 8-μm pores were coated with 1% gelatin for 10 min at room temperature and equilibrated in M199 medium supplemented with 2% FCS. Peptides were placed in the lower compartment of a Boyden chamber in M199 supplemented with 2% FCS, 20 ng/ml VEGF-A (R&D System), and 1 U/ml heparin. Overnight-starved subconfluent cultures were quickly trypsinized, and resuspended in M199 containing 2% FCS at a final concentration of 2×10^6 cells/ml. After the filter was placed between lower and upper chambers, 50 μl of the cell suspension was seeded in the upper compartment. Cells were allowed to migrate for 5 h at 37° C. in a humidified atmosphere with 5% CO2. The filter was then removed, and cells on the upper side were scraped with a rubber policeman. […] Five random high-power fields (magnitude 40×) were counted in each well.
Cell migration was assayed in a 48-well microchemotaxis chamber. […] Five random high-power fields (magnitude 40×) were counted in each well.

CKLWQEDGY
β5/GST Ratio [1]: 1.8

CYNLCIRECESICGADGACWTWCADGCSRSC
Round 2 (%) (APA (SK-RC-49/APA cells) [2]; share of 18 randomly selected phage inserts, round 2): 50%
Round 3 (%) (APA (SK-RC-49/APA cells) [2]; share of phage inserts, round 3): 100%
displacement of phage binding by CPRECESIC peptide (APA (SK-RC-49/APA cells) [3]; data not shown): displaced
enrichment in tumor xenografts compared to brain tissue [4]: Neither CYNLCIRECESICGADGACWTWCADGCSRSC (SEQ ID NO:125) nor CLGQCASICVNDC (SEQ ID NO:126) phage showed any tumor-homing preference

DWFSYYEL
β5/BSA Ratio ([1]; colonies from β5-GST wells divided by BSA): 153
β5/GST Ratio [1]: 1.7

GACVRLSACGA (disulfide 3-9 (inferred)) [unrelated cyclic control peptide, reference compound]
competition with CPKVCPRECESNC phage for binding to SK-RC-49/APA cells (APA (SK-RC-49/APA cells) [3]; soluble peptide in binding medium, not shown): no competitive activity
inhibition of chemotaxis of HUVECs (HUVECs [5]): no significant effect
inhibition of HUVEC proliferation (HUVECs [6]): no significant effect
HUVEC morphogenesis / capillary-like network (HUVECs [7]): did not affect HUVEC morphogenesis
effect on the number of growing vessels [8]: no effect

GLDTYRGSP [TYR-11 tested as penetratin chimera]
effect on endothelial cell migration (endothelial cells): increase cell migration

SDNRYIGSW [Y-18 tested as penetratin chimera]
effect on endothelial cell migration (endothelial cells): increase cell migration
